Experimental data taken from US7041458B2, “Methods and reagents for determining protein S” (priority 1996, dated 2006).
Like-named read-outs stand apart in the source and are kept apart here. Each block holds one molecule with its values, some of them ahead of it. Bridges are numbered along the chain shown (N, C = ends). Where no end group is shown, it is not given here.

Tests used:
[1] = target: T1, protein S-C4BP interaction (Homo sapiens, UniProt P20851); assay: Peptide inhibition of the protein S-C4BP interaction by surface plasmon resonance (BIAcore, immobilized C4BP); format: binding; conditions: for effect on binding of human protein S to C4BP (SPR response): 50 nM protein S, peptide up to 100 μM (2000-fold excess); for IC50: 50 nM human protein S, immobilized C4BP, read-out: half maximum inhibition, peptide concentration; for inhibition of the protein S-C4BP interaction (summary of the above tests): up to 2000-fold excess over protein S
T1 construct: C4BPβ was first isolated from human plasma in the form of the protein S-C4BP complex; from tissue; host or cells: human plasma
T1 sequence (P20851 18-252): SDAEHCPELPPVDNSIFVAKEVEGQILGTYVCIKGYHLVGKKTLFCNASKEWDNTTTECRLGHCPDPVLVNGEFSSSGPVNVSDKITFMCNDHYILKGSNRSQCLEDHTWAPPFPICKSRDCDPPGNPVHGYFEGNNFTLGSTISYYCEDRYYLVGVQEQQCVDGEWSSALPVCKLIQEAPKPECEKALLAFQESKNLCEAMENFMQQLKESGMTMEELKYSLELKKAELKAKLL
T1 sequence (P04003 49-597 partner): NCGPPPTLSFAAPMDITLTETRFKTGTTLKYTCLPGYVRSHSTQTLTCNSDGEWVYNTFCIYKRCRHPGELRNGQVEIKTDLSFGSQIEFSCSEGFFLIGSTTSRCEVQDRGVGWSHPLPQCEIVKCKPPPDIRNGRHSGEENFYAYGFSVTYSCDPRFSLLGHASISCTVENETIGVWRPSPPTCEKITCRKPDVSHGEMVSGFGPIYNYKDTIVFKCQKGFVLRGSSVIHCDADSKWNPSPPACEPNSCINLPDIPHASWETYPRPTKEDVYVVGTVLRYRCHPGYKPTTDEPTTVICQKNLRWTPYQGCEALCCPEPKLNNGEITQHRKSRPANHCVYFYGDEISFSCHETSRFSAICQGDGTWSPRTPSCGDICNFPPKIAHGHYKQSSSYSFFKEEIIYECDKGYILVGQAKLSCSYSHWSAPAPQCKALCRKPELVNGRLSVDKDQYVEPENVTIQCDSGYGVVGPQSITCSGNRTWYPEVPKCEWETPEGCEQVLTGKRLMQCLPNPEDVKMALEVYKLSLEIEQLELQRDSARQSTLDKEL
Method: E. Peptide Inhibition of the Protein S-C4BP Interaction According to Surface Plasmon Resonance Studies.
The surface plasmon resonance studies were performed using a BIAcore™ apparatus from Pharmacia Biosensor AB. Immobilization of C4BP to the dextran coated gold surface of a sensorchip was performed at a flow rate of 5 μl/min, using HC as flow buffer. Equal volumes of 0.1 M NHS and 0.1 M EDC were first mixed, whereafter 30 μl of the mixture was flown over the sensorchip surface to activate the carboxymethylated dextran. C4BP was then injected over the sensorchip (40 μl of a 60 μg/ml solution in 10 mM NaOAc at pH 4.75), whereafter unreacted NHS-ester groups were blocked by 15 μl 1M ethanolamine (pH 8.5). The system was regenerated by addition of 15 μl 0.1 M HCl, which removes all non-covalently bound molecules. The immobilized amount of C4BP was 8000 RU. Protein S association was monitored with 50 nM human protein S in HC buffer in a continuous flow of 1 μl per minute during 45 minutes. The ability of each peptide to inhibit the protein S binding was studied by following the association to C4BP for mixtures of protein S and peptide. In BIAcore™, the total amount of bound material is measured, and the peptides are 25-fold smaller than protein S, inhibition of protein S-binding by peptide binding will drastically lower the observed response during the association phase. The percent protein S bound, X, was calculated as X=(S−0.04Smax)/0.96Smax where S is the measured response and Smax is the response obtained in the absence of peptide.
As disclosed in Section E, the ability of the synthetic peptides to inhibit the binding of human protein S to C4BP was also studied using surface plasmon resonance on a BIA-core™ system.
(§1) In these figures, peptide inhibition of the protein S-C4BP interaction is shown as the amount of protein S bound (relative to the amount bound in the absence of peptide) versus concentration of the nine peptides listed in Table 1: (o) SL1, (♦) SL2, (□) SL3, (+) SL4, (⋄) SL5, (●) SL6, (▾) SL7, (Δ) BD4 & (∇) BD6. In FIG. 5A, the result from an equilibrium binding assay using immobilized C4BP in microtiter wells and radiolabelled human protein S is shown. […] In FIG. 5B, the result from surface plasmon resonance assay on a BIAcore™ sensorchip is shown. The amount of protein S bound, X, was calculated from the observed signal intensity, S, compared to the maximum signal intensity in the absence of peptide Smax, as X=(S−0.04)/0.96 Smax.

[2] = target: T1, protein S-C4BP interaction; assay: Peptide inhibition of the protein S-C4BP interaction in microtiter plates (equilibrium binding assay, 125I-labelled protein S tracer, immobilized C4BP); conditions: displacement of 125I-labelled protein S from immobilized C4BP, EDTA buffer; read-out: half-maximum inhibition
Method: D. Peptide Inhibition of the Protein S-C4BP Interaction in Microtiter Plates.
(§2) Microtiter plates were coated with C4BP, 50 μl/well, 10 μg/ml in 0.075 M sodium carbonate buffer, pH 9.6. The plates were incubated over night at 4° C. and then washed with TBS, pH 7.5, containing 0.1% Tween 20. […] The wells were then washed and the amount of bound protein S detected using a γ-counter.
As disclosed in Section D, the synthetic peptides were tested for their ability to displace binding of a ^125I-labelled protein S tracer to immobilized C4BP (FIG. 5A).
as §1

[3] = target: T2, C4BP (Homo sapiens, UniProt P20851); assay: Fluorescence polarization titration of peptides with C4BP (results not shown); format: binding; conditions: read-out: dissociation constant KD of the peptide-C4BP complex
T2 sequence (P20851 18-252): T1 sequence (P20851 18-252)
T2 sequence (P04003 49-597 partner): T1 sequence (P04003 49-597 partner)
From the text: The difference in KD observed for the peptide and protein might in part be due to post translational modification of the protein.

[4] = target: T2, C4BP; conditions: Ca2+-free; read-out: dissociation constant KD of the complex with C4BP; cited from earlier work
[5] = target: T3, C4b-binding protein (C4BP), species containing the protein S binding β-chain, purified from human plasma (human, UniProt P04003 49-597; P20851 18-252); assay: SPR (BIAcore) competition: 50 nM human protein S mixed with peptide, flowed over immobilised C4BP (8000 RU), HC buffer; percent protein S bound calculated from the response
T3 construct: mature; Isolated from human plasma as the protein S-C4BP complex, dissociated in 3 M guanidine-HCl and purified further; predominantly C4BPβ, and a minor proportion lacking the β-chain may be present; Immobilised on microtiter wells or on a CM5 sensorchip; also called C4BPβ
T3 sequence (looked up) 1: T1 sequence (P04003 49-597 partner)
T3 sequence (looked up) 2: T1 sequence (P20851 18-252)
Method: The surface plasmon resonance studies were performed using a BIAcore™ apparatus from Pharmacia Biosensor AB. Immobilization of C4BP to the dextran coated gold surface of a sensorchip was performed at a flow rate of 5 μl/min, using HC as flow buffer. Equal volumes of 0.1 M NHS and 0.1 M EDC were first mixed, whereafter 30 μl of the mixture was flown over the sensorchip surface to activate the carboxymethylated dextran. C4BP was then injected over the sensorchip (40 μl of a 60 μg/ml solution in 10 mM NaOAc at pH 4.75), whereafter unreacted NHS-ester groups were blocked by 15 μl 1M ethanolamine (pH 8.5). […] Protein S association was monitored with 50 nM human protein S in HC buffer in a continuous flow of 1 μl per minute during 45 minutes. […] The percent protein S bound, X, was calculated as $$X=(S-0.04Smax)/0.96Smax$$
In these figures, peptide inhibition of the protein S-C4BP interaction is shown as the amount of protein S bound (relative to the amount bound in the absence of peptide) versus concentration of the nine peptides listed in Table 1: (o) SL1, (♦) SL2, (□) SL3, (+) SL4, (◊) SL5, (●) SL6, (▼) SL7, (Δ) BD4 & (▽) BD6. […] The amount of protein S bound, X, was calculated from the observed signal intensity, S, compared to the maximum signal intensity in the absence of peptide $Smax$, as $X=(S-0.04)/0.96\ Smax$.

[6] = target: T3, C4b-binding protein (C4BP), species …; assay: competition, equilibrium binding in microtiter wells: peptide against a trace of 125I-labelled human protein S on immobilised C4BP, TBS with 10 mM EDTA, 4 °C overnight, gamma counting
Method: as §2
as §1, with “(◊)” for “(⋄)”, “(▼)” for “(▾)”, “(▽)” for “(∇)”, “$Smax$,” for “Smax,”, “$X=(S-0.04)/0.96\ Smax$.” for “X=(S−0.04)/0.96 Smax.”

[7] = target: T3, C4b-binding protein (C4BP), species …; assay: unlabelled protein S competing with 125I-protein S tracer for immobilised C4BP in microtiter wells, EDTA buffer
Method: as §2
as §1, with “(◊)” for “(⋄)”, “(▼)” for “(▾)”, “(▽)” for “(∇)”, “$Smax$,” for “Smax,”, “$X=(S-0.04)/0.96\ Smax$.” for “X=(S−0.04)/0.96 Smax.”

Molecule: DKAMKAKVATYLGGLPDVPFSAT [SL4]
- effect on binding of human protein S to C4BP (SPR response) [1]: the same response was observed as with protein S alone

Molecule: KPENGLLETKVYFAGFPRK [SL1]
- effect on binding of human protein S to C4BP (SPR response) [1]: the same response was observed as with protein S alone

Molecule: LDGCIRSWNLMKQGASGIKEIIQEKQNKHCLVT (disulfide 4-30 (inferred)) [BD4, reference compound]
- effect on binding of human protein S to C4BP (SPR response) [1]: the same response was observed as with protein S alone
- inhibition of the protein S-C4BP interaction (summary of the above tests) [1]: gave no inhibitory effect
- inhibition of the protein S-C4BP interaction (summary of the above tests) ([1]; listed as 405–437): did not show any inhibitory effect

Molecule: LVTVEKGSYYPGSGIAQ [SL5]
- effect on binding of human protein S to C4BP (SPR response) [1]: the same response was observed as with protein S alone

Molecule: SDQQSHLEFRVNNLEKSTPLK [SL3]
- effect on binding of human protein S to C4BP (SPR response) [1]: the same response was observed as with protein S alone

Molecule: YNGCMEVNINGVQLDLDEAISKHNDIRAHSCPSV (disulfide 4-31 (inferred)) [BD6, reference compound]
- effect on binding of human protein S to C4BP (SPR response) [1]: the same response was observed as with protein S alone
- inhibition of the protein S-C4BP interaction (summary of the above tests) [1]: gave no inhibitory effect
- inhibition of the protein S-C4BP interaction (summary of the above tests) ([1]; listed as 595–628): did not show any inhibitory effect

Molecule: plasma purified human protein S: plasma purified human protein S, unlabelled competitor of radiolabelled protein S
- Kd [4]: 6.5 nM

Molecule: EKGSYYPGSGIAQFHIDYNNVS [SL2 synthetic peptide (protein S residues 439-460)]
- IC50 (read off the curve) [6]: ~200 µM
- IC50 (read off the curve) [5]: ~40 µM

More lines, now with the values ahead:

- IC50 [2]: 100 to 200 µM
- Kd [3]: ≤ 1000 nM
- IC50 [1]: 30 to 120 µM
Molecule: EKGSYYPGSGIAQFHIDYNNVS [SL2]

- IC50 [2]: 100 to 200 µM
- Kd [3]: ≤ 1000 nM
- IC50 [1]: 30 to 120 µM
Molecule: LVTVEKGSYYPGSGIAQFHIDYNNVSSAEGWHVN [SL7]

- IC50 [2]: 100 to 200 µM
- Kd [3]: ≤ 1000 nM
- IC50 [1]: 30 to 120 µM
Molecule: SGIAQFHIDYNNVSSAEGWHVN [SL6]

- IC50 (read off the curve) [5]: ~30 µM
Molecule: SGIAQFHIDYNNVSSAEGWHVN [SL6 synthetic peptide (protein S residues 447-468)]

- IC50 (read off the curve) [6]: ~90 µM
Molecule: LVTVEKGSYYPGSGIAQFHIDYNNVSSAEGWHVN [SL7 synthetic peptide (protein S residues 435-468)]

- IC50 [7]: ~2000 nM
B1: plasma purified human protein S (other, UniProt P07225 42-676, looked up)
chain: ANSLLEETKQGNLERECIEELCNKEEAREVFENDPETDYFYPKYLVCLRSFQTGLFTAARQSTNAYPDLRSCVNAIPDQCSPLPCNEDGYMSCKDGKASFTCTCKPGWQGEKCEFDINECKDPSNINGGCSQICDNTPGSYHCSCKNGFVMLSNKKDCKDVDECSLKPSICGTAVCKNIPGDFECECPEGYRYNLKSKSCEDIDECSENMCAQLCVNYPGGYTCYCDGKKGFKLAQDQKSCEVVSVCLPLNLDTKYELLYLAEQFAGVVLYLKFRLPEISRFSAEFDFRTYDSEGVILYAESIDHSAWLLIALRGGKIEVQLKNEHTSKITTGGDVINNGLWNMVSVEELEHSISIKIAKEAVMDINKPGPLFKPENGLLETKVYFAGFPRKVESELIKPINPRLDGCIRSWNLMKQGASGIKEIIQEKQNKHCLVTVEKGSYYPGSGIAQFHIDYNNVSSAEGWHVNVTLNIRPSTGTGVMLALVSGNNTVPFAVSLVDSTSEKSQDILLSVENTVIYRIQALSLCSDQQSHLEFRVNRNNLELSTPLKIETISHEDLQRQLAVLDKAMKAKVATYLGGLPDVPFSATPVNAFYNGCMEVNINGVQLDLDEAISKHNDIRAHSCPSVWKKTKNS
modifications: 125I-labelled where used as tracer in the microtiter equilibrium assay
notes: mature; also called PS; free protein S
